Measurements: publication PMC10329691, “The structural pathology for hypophosphatasia caused by malfunctional tissue non-specific alkaline phosphatase” (Nature Communications, 2023)
Numbering of substitutions follows the chain as printed. Names may count otherwise.

Legend:
[1] = target: the molecule itself; assay: SEC; Superdex 200 Increase 10/300 GL, 20 mM HEPES pH 7.5, 150 mM NaCl; purified TNAP alone
[2] = target: the molecule itself; assay: SEC-MALS; static light scattering, WTC-030S5 column, 150 mM NaCl, 20 mM HEPES pH 7.5, 0.5 mL/min
[3] = target: the molecule itself; assay: crystal structure; crystals of hTNAP 18-500 grown at acidic pH (PEG3350, sodium acetate pH 5.0; about 2.9 Å) and at basic pH (PEG4000, Tris pH 8.0, MgCl2; about 3.2 Å)
[4] = target: T1, human tissue non-specific alkaline phosphatase, amino acids 18-500 (hTNAP^18–500) (human, UniProt P05186, N-glycosylation (asparagine residues, seen in the crystal structure)); assay: cryo-EM structure; hTNAP 18-500-scFv complex, 300 kV Titan Krios, C2 symmetry, 2.96 Å; conditions: both partners purified
T1 construct: human tissue non-specific alkaline phosphatase (ALPL gene), amino acids 18-500, the mature form with the GPI-anchor amidated residue Ser 501 removed; HA signal peptide at the N-terminus for secretion; TEV protease site before the Flag and His tags, no cleavage described; Dimer dominates in solution, with higher oligomers; octamer in the crystals; The same range was also made in Expi293F from …

B1: TNAP^T167M (active site mutant of hTNAP 18-500) (enzyme, human, UniProt P05186 18-500, looked up)
chain: LVPEKEKDPKYWRDQAQETLKYALELQKLNTNVAKNVIMFLGDGMGVSTVTAARILKGQLHHNPGEETRLEMDKFPFVALSKTYNTNAQVPDSAGTATAYLCGVKANEGTVGVSAATERSRCNTTQGNEVTSILRWAKDAGKSVGIVTTMRVNHATPSAAYAHSADRDWYSDNEMPPEALSQGCKDIAYQLMHNIRDIDVIMGGGRKYMYPKNKTDVEYESDEKARGTRLDGLDLVDTWKSFKPRYKHSHFIWNRTELLTLDPHNVDYLLGLFEPGDMQYELNRNNVTDPSLSEMVVVAIQILRKNPKGFFLLVEGGRIDHGHHEGKAKQALHEAVEMDRAIGQAGSLTSSEDTLTVVTADHSHVFTFGGYTPRGNSIFGLAPMLSDTDKKPFTAILYGNGPGYKVVGGERENVSMVDYAHNNYQAQSAVPLRHETHGGEDVAVFSKGPMAHLLHGVHEQNYVPHVMAYAACIGANLGHCAPA
notes: human tissue non-specific alkaline phosphatase, amino acids 18-500, with the hypophosphatasia mutation T167M; HA signal peptide at the N-terminus; PreScission site before the tags; also called active site mutant TNAP^T167M; source: Expi293F, transfected, purified from the supernatant (Nickel-chelating resin, SEC)
- stoichiometry N [1]: 2

B2: TNAP^R450C (dimeric interface mutant of hTNAP 18-500) (enzyme, human, UniProt P05186 18-500, looked up)
chain: B1 chain with M150T, R433C
notes: human tissue non-specific alkaline phosphatase, amino acids 18-500, with the hypophosphatasia mutation R450C; HA signal peptide at the N-terminus; PreScission site before the tags; also called dimeric interface mutant TNAP^R450C; source: Expi293F, transfected, purified from the supernatant (Nickel-chelating resin, SEC)
- stoichiometry N [1]: 2

B3: human tissue non-specific alkaline phosphatase, amino acids 18-500 (hTNAP^18–500) (enzyme, UniProt P05186 18-500, looked up)
chain: B1 chain with M150T
modifications: N-glycosylation (asparagine residues, seen in the crystal structure)
notes: human tissue non-specific alkaline phosphatase (ALPL gene), amino acids 18-500, the mature form with the GPI-anchor amidated residue Ser 501 removed; HA signal peptide at the N-terminus for secretion; TEV protease site before the Flag and His tags, no cleavage described; Dimer dominates in solution, with higher oligomers; octamer in the crystals; The same range was also made in Expi293F from …
- stoichiometry N [2]: 2
- stoichiometry N [3]: 8

B4: scFv of the TNAP agonist antibody JTALP001 (scFv, V domains shown)
VH: QVQLVQSGAEVKKPGASVKVSCKASGYTFTSYGISWVRQAPGQGLEWMGWISAYNGNTNYAQKLQGRVTMTTDTSTSTAYMELRSLRSDDTAVYYCARDKGWNSEGSLEYWGQGTLVTVSS
VL: DIVMTQSPSSVSASVGDRVTITCRASQGISNWLGWYQQKPGKAPKLLIYGASSLQSGVPSRFSGSGSGTDFTLTISSLQPEDFATYFCQQAYSLPLTFGGGTKLEIK
notes: scFv selected from a human scFv phage library against hTNAP 18-500; The Fc fragment of JTALP001 was replaced by a His-tag; also called scFv fragment; scFv antibody; source: Expi293F, purified (Nickel-chelating resin)
- stoichiometry N [4]: 1 scFv per TNAP protomer
